This is an account of results in the DeepSol protein solubility set.

A short description of this data set: soluble on expression in E. coli; label from the status in PepcDB or PDB records.
Regarding “MSLRFLADIEEYIGFEIPKIEAPSQEEVARKKPEFLAKLNDRPESKKDKSEELNKDIMKLYFNGGKKKKIRAVDFVGTIAKIDGVSADDIGIITIMDNASYVEILNGKGPHVLKVMKNTTVKGKQLKVNKANKEGHHHHHH”, the “soluble on expression in E. coli” value is reported as “not soluble”.

Regarding “MSLRHSGAPLSPRNVCPMKTIAPCMAAMMLLSGCNGVPTSYVSDPVYSQAFVVTSGAPLPMLLMASAIQWNEDYAVTAKHTPFLRNVVHEGLGDVVFFKHKASSVPHWRQYVPGEAVTAVGFNSFMMPMQGKGHALSSLVRLEGTPGSVFYSVHDGPITKGMSGGPVFADDGKVVGINVAIIPTDEINAGKRPDLVGKDRISVFMSFSEIDKEWRRYQYLLAHKAKPKAPAAVKGYVAVAAKEGHHHHHH”, the “soluble on expression in E. coli” value was “not soluble”.

Take “MSLRILIVDDEKLTRDGLIANINWKALSFDQIDQADDGINAIQIALKHPPNVLLTDVRMPRMDGIELVDNILKLYPDCSVIFMSGYSDKEYLKAAIKFRAIRYVEKPIDPSEIMDALKQSIQTVLQHQAQQDSEGHHHHHH”: the “soluble on expression in E. coli” value was “soluble”.

On to “MSLRILVIEDEISLNKTIIDNLNEFGYQTDSSENFKDGEYFIGIRHYDLVLANWTLPDGDGAELVNTIKHKSPRTSVMIMSSKTDKETEIKALKAGADDFVKKPLDFDILLARIEARLRLGGTNVIKIEDLVIDPDEEKITYKGQDIELKGKPFEVLTHLARHSDQIVSKEQLLDAIWEEPELVTPNVIEVAINQIRQKMDKPLNISTIETVRRRGYRFCFPKKSEGHHHHHH”, for which the “soluble on expression in E. coli” value is listed as “soluble”.

As for “MSLRIYFDKILERASPKVERQALTHVERLAMVRRHGDFSLAYSTAVQQKLSYFGDADGYIAFGTKMKHHFALGDPVAAPARRPDFIKRFVETAGDPWFVQISEETARVLAGLGYKVNRLGIDTSLVLSEHDFSGKRNETVRYSERWLLKKGFSFEEDKRTVFLDEIARLSENWRGDRIVKRWEMGFLNRPFYDQLGTDMRRFVLHGPDGELIALLDFDPLFRDGKVIGYTTAFKRKHIDASPHAEIGLTKFAVDRFREEGISVVTLGLSPLVDVTPSGFAESDFWRNTFQRAYASPWVNRRRFNLQGQAAFKRRFHGKEEPVYIAFRKGTYVEMLGLLRLVKAIEGHHHHHH”, the “soluble on expression in E. coli” value is “not soluble”.

With “MSLRKIHVTIIAPYEGLAETFKRIQNEFEHLDMTIHIADLQQSLPLLTTEVQAQTDIFISRGGTAKVIRTRTEKPVVEVPISGFDILRMILLIQAEREQTEIIAFENISLSFTKVTELIETDIPITAVMKEEEVEPAIIAAKAAGRKMIVGDAITTSLANKHGLEGILITSGEESVRTALEQADLLGRKMNDSKQEGHHHHHH”, the “soluble on expression in E. coli” value is recorded as “soluble”.

In the case of “MSLRKKIAAFGEVMMRLQVPGYELLSQANTLNYSFSGTGVNVVAALSHLGHEGLLISTLPENSVGDAAVSYIQKLGIQTSLVSRGGKYVGMYFLENGFGARASRVTYSNRLESSFNTASEEIYQFEEIAKEIDIVHFCGITLAMNDTVRHHMKSLARAVKENGGTVVFDCNYRPSLWGEDGYEQAKPHYEEMLGLADIVMMNEKDAMFVLGIKTEETEREAQLVDLIPKVAETYHIATIAGTHRSINSDNTHSLRGFICKDGTFTFAKTLTFSVYDRIGAGDAYTSGIIHGEIKEFAPEKAVSFASAAGMLAHTIVGDTPMSSEKDILRAMTASVGDVEREGHHHHHH”, the “soluble on expression in E. coli” value is given as “soluble”.

Consider “MSLRKRPDSVTPDLLHVDRSAMGPLAERMRPRTLDDMVGQKRLLAPDSALRRAVESGRVHSMILWGPPGCGKTTLALLLAHYADAEFNAISAVLSGLPEVRQVLAEAAQRFAGGRRTVLFVDEVHRFNKAQQDAFLPHIERGTILFVGATTENPSFELNSALLSRCRVHVLEGVSPQDIVEALQRALHDAERGLGQQTIQVSEASLLEIASAADGDVRRALTLLEIAAELATGEGGEITPRTLLQVLADRTRRFDKNGEQFYDQISALHKSVRSSNPDAALYWLTRMLDGGCDPTYLARRLTRMAIEDIGLADPRAQGMALEAWDIYERLGSPEGELAFAQLVLYLASTAKSNAGYAAFNQARAEVRATGTQEVPLHLRNAPTKLMKTLGYGQDYQYDHDAEGGIALDQTGFPDAMGERVYYNPMPRGMEIKLKEKLDRLRETRGQAREGHHHHHH”, for which the “soluble on expression in E. coli” value is “soluble”.

Turning to “MSLRLGVTGLSRAGKTVFISSLVHNLLNGGRLPLFEAMRSGRVSNVRLEPQPDDAIPRFQYEDHIQALVRDRLWPDSTRAISELRITLDYQSASGWGRWFSAGKLSIDIVDYPGEWLLDLPLLSQDYKQFSDATVALAGSGIRAELAQEWLAIASSLDINAPADEMTARRLAESFAAYLKACKSDERSLSTLPPGRFLMPGDLEGSPALTFAPLPGVTDAKAPKGSLRAMMERRYDAYKSIVVKPFFREHFARLDRQIVLIDTLQAVNRGPEAVQDLERALGDVLACFRPGTNSILSSLIRRRIDKVLIAATKADHLHHESHDRLERLTRRLVDRAITTIGMNGAGIEVMALASVRATREASVRQDGHELPVIVGTPMAGETINGEIFDGNRKTAIFPGDLPEDPEPLFRSIDQDGDKATLPDVNVVRFRPPNIDEPGSGGIRLSVPHIRLDRAMQFLFGDKLAEGHHHHHH”, the “soluble on expression in E. coli” value is recorded as “soluble”.

As for “MSLRLPPPDARPIRVVCISDTHTLELADMPDGDLLIHAGDLCNDGSAKEIQAAVDWLRKLPHPQKVVICGNHDSYFDIRSRRFEDRDQSLATVSSSTASLRSVDDFDFPHCIDWGDIHYLQHSSVTVTFPPLPQTPSSSSALLASRPRSLTIYGAPQIPAIVPFGPEHAFAYPAHHDAWSGTIPPNTDIMVTHTPPQSHLDLSPVFSTGCPFLLSEAWRIRPALHVFGHVHAAYGREPVYWDEAQKAWERICSSRREGHHHHHH”, the “soluble on expression in E. coli” value is given as “not soluble”.

In the case of “MSLRLQFQLKVDGLEDESLVVRGFEGQESLSDSVWRCEPCYGFRYQVDLASALSNLTAEQFVDQTAHLTILRDGQVVQQINGIVRQLSKGDTGHRHTFYSLTLVPALERLSLRSNSRIFQQQSVPEIISILLQEMGIEDYAFALKRECAQREFCVQYRETDLQFLHRIAAEEGLVYSHLHEAQKHTLLFTDSSDSQPKLAKPVPYNALAGGEINLPYVVDLQFKTTAQVSHTELKDYSFKKPAYGFTQRTQGKDIAYQQPNYEHFDAPGRYKDDANGKAFSQIRLEYLRRDALLADAKSDEPLLLAGVRFDLQDHLDHAMNRDWLVVQANHQGTQPQALQEEGGSGATTYSNQLKLIPAHITWRARPCAKPQVDGPMIATVVGPQGEEIYCDNFGRVKVHFPWDRYSSSNEKSSCWVRVAQEWAGSQYGSMAIPRVGHEVIVSFLNGDPDQPIITGRTYHATNTAPYALPDHKTKTVLRTETEGHHHHHH”, the “soluble on expression in E. coli” value is “soluble”.

Consider “MSLRMNAMKIISVNVGQPTALQVGQRTAVSGIRKHPVPGRVQVGEKGLEGDHVLNRRYHGGPDQAVYVYTREDYDHWTELLGRALEPGAFGENVLISGAESAEVRVGERFLLGAVEIEVTAPRLPCSTLGARMEDAGFVKRFKAARRPGFYARVLQSGDIGRGDPVTRTPAPDGAPTIGELFDADFAKSHDPAELRAWLTFPLGKRQRKEVEKWLAKAEGEGHHHHHH”, for which the “soluble on expression in E. coli” value is “soluble”.

As for “MSLRSAYLSTESKIVLDVISVSDTHGWIYGHRHLPEYGDYGTLLSYIERTRQKALESEGRSVLAVDAGDLVEGTGLSDLTKVKGEKILEAASYIGFDLQTIGNHESYYKETTDYIHSKVEALFGDRYITTNVFMRDTNVPVGSGRYKYLVLPTGLRVLMLGFLFHTSPYDGVYTIPAREAIASQEITGVLEKYKYQTDLLVLACHIPTYDLEISEIVTELRAFYNQINYTIPIIIIAGHYHQIKNTYCMDGQDKQCYIVEGGCYLRFMQHVTYEFKPMTYSHEGNTYTGYQFSSVDYSLPYNEGHHHHHH”, the “soluble on expression in E. coli” value was “soluble”.

Take “MSLRSPLEPGAPDALLTVIVIVEHLDHKEEVIVQGREIVPSMDGHFDTIQELNSRFTESAPREKIEIGNRERPFKLHVVNVGDSRAMLVTGESYAALTRDHVPDDPGEWRRIEETGDQVVYSDGCARIRGLAMSRSFGDFVAKEVRTPSPITAKPDIRRFYATWNDVLLLYSDGLHVDGEDWRTNFGMAKQCISSVPKISDVAVCLLQQAYGGGSSDNITVLATKFRKFRRQTSAKLRIFGGLAKSFSEEGHHHHHH”: the “soluble on expression in E. coli” value is reported as “not soluble”.

With “MSLRTLVAGVDTSTQSCKVRVTDAETGELVRFGQAKHPNGTSVDPSYWWSAFQEAAEQAGGLDDVSALAVGGQQHGMVILDNQGNVIRDAMLWNDTSSAPQAAALIEKLGAAPAQDGEPEDPIARGKQRWVKAVGSSPVASYTLTKVAWVAENEPENVKKIAAICLPHDWLSWRIAGYGPVAEGEDAHLEALFTDRSDASGTIYYDAASNEYRRDLIAMVLEAAEGAKAAQSHAEAIVLPTVLGPRDAAPVKADPAIAGKNVEGGCLLAPGGGDNAMASLGLGMAVGDVSISLGTSGVAAAISENPTYDLTGAVSGFADCTGHYLPLACTINGSRILDAGRAALGVDYDELAKLAFASKPGANGITLVPYFDGERTPNRPNATATFSGMTLANTTRENLARAFVEGLLCSQRDCLELIRSLGASITRILLIGGGAKSEAIRTLAPSILGMDVTRPATDEYVAIGAARQAAWVLSGETEPPAWQLTIDGVETGEPTEAVYEAYAKARGEGHHHHHH”, the “soluble on expression in E. coli” value was “soluble”.

For “MSLRVFLTGATGFVGSHVLKELLAAGHQVTGLTRSDAGGRWLVQAGASVHRGTLEDAGSLARGAEQADAVIHTAFDHVFSRYLENCAKDARVISAMAEVLKGSNRPLIITSATGIGAPGAGLPAVEEVVDWAHALPRIASERAGREAADKGVSVAVVRLPQVHDTEKQGLISPLIDIGRAKGVSAYVGDGSNHWSAVHIDDAARLYRLALEHHEAGARYHAVAEEGVSMRQIAETIGAGLGVPVLALQADEVVGHFGWLAPFMAMDMRASSAATRRRLNWTPTGPDLLTDLKAMDYRKLRTASEGHHHHHH”, the “soluble on expression in E. coli” value is “soluble”.

As to “MSLRVLIVENEIYLAQSIAAKLSDFGFECEIVSLVNEALREQEYDVVLLSTNVSGQNYYPIIEKHKDSIIILMISYVSDDTVSKPLKAGAKDYILKPFMIDELIRKIEHYRTFQKLKKEVQFYRRYLDFALSDFPSSLNQKLTTPFVIKSSTQKSADAYAIAYAKHKDIPLDFLSIKEGFHWRDKLKRALPCREIKYIVGLEELKKSERKELLEIVAKSCVILSFVSSEEGHHHHHH”, the “soluble on expression in E. coli” value was “not soluble”.

With “MSLRVRIAVIGKLDGFIKEGIKHYEKFLRRFCKPEVLEIKRVHRGSIEEIVRKETEDLTNRILPGSFVMVMDKRGEEVSSEEFADFLKDLEMKGKDITILIGGPYGLNEEIFAKAHRVFSLSKMTFTHGMTVLIVLEQIFRAFKIIHGENYHYEGGSHHHHHH”, the “soluble on expression in E. coli” value is recorded as “soluble”.

Regarding “MSLSAKSSLKEVAELAGVGYATASRALSGKGYVSPQTREKVQAAAKELNYVPNQLAKALREHRSALVGVIVPDLSNEYYSESLQTIQQDLKAAGYQMLVAEANSVQAQDVVMESLISIQAAGIIHVPVVGSIAPEGIPMVQLTRGELGPGFPRVLCDDEAGFFQLTESVLGGSGMNIAALVGEESLSTTQERMRGISHAASIYGAEVTFHFGHYSVESGEEMAQVVFNNGLPDALIVASPRLMAGVMRAFTRLNVRVPHDVVIGGYDDPEWYSFVGAGITTFVPPHEEMGKEAVRLLVDLIENPELPTGDVVLQGQVILRGSSTHEGHHHHHH”, the “soluble on expression in E. coli” value is listed as “soluble”.

“MSLSDLITLAQLSQGYRYNSDSLILADFILKQGIKGAVFDVGAGCGIIGILLKKNIANLSLSLIDIQKENIELIEKNLKSNKIQGDIFHDDFNQFQIIKKFDFIVCNPPFYRQGAYKSEDQHKAISKFQEFLPLHSFLAKTNSMLKPNGTLYFCYEALALDEICFILKDMKMKITKLCFVHTHQSKKARLVLIQVKKGSKSPCEILPPFFVYENEILSKQMQEIHLRFRLKSYDEGHHHHHH”: the “soluble on expression in E. coli” value was “soluble”.
